Assay: soluble on expression in E. coli; label from the status in PepcDB or PDB records

Sequence | soluble on expression in E. coli
MGSDKIHHHHHHMTVRDFHYYEPAEGHGLSHNPLNALVAPRPIGWISSRDAQGRVNLAPYSFFNAFNYDPPIIGFSSIAWKDSVQNASETREFTWNLVTRELGDQMNQTSSPLPHGEDEFQFAGLTAVAGRKVNVPRVGESRAAMECKVIDIVQFRNTAGEKVGGWLVLGEVVAVYIDKTLLKDGVYQTAEAYPIMRSGGLNDYVQVSPDNVFQIARLAGASSPSSHGKG | not soluble
MDKKPSKKKVAIIGGGVAGSTIAMYLSKFDIEIDLFEQGTSLVNGPPICHLHAGGNLYREISDEQCIALLTESIQTAQFFPHSLNIRPTIIAVPKDDRAEASDLLPRLNLLQKHYLELIEQSKKNEVFGRPEDYFTTFTKQELFEIAKLEPTNQPRSMTEWMIPFAKTTDLEQIKYPVVIVQEYGLSVFRMASTAQLVLSEQSNVNLHLSCRVEKLNKQDNGNWFLSFSNSDTVTSCNFDYVINCAGFRTGIIDDLAQQQTKRLVEFKAAYVTHWNSDFFGKWPEVIFHGERGTPKGMAQLTPYPNGYFQLHGMTEEITLFKDGLSRSSELSSQPQLPEKFINKITNGWKESIQQERTEKAIKHLSQFISSFETASTAGKPLYGAQQIPGDDITLRAATINYDGHGYFRAEIVKASSAIECAKQIAQTIKLSTEINTLTQPSNDDVCHLAEQFAIERGYPVELAQTYLEHHHHHH | not soluble
SIDKNFWQGKRVFVTGHTGFKGSWLSLWLTEMGAIVKGYALDAPTVPSLFEIVRLNDLMESHIGDIRDFEKLRSSIAEFKPEIVFHMAAQPLVRLSYEQPIKTYSTNVMGTVHLLETVKQVGNIKAVVNITSDKCYDNREWVWGYRENEPMGGYDPYSNSKGCAELVASAFRNSFFNPANYEQHGVGLASVRAGNVIGGGDWAKDRLIPDILRSFENNQQVIIRNPYSIRPWQHVLEPLSGYIVVAQRLYTEGAKFSEGWNFGPRDEDAKTVEFIVDKMVTLWGDDASWLLDGENHPHEAHYLKLDCSKANMQLGWHPRWGLTETLSRIVKWHKAWIRGEDMLICSKREISDYMSATTR | soluble
MSLDFSHEFFGSLDPQALAHPDSIKWQHYGEGVIPMWIADMDFPVAPPILRALEDRLTRGLGYPLGRDDRLIADLQTKWASQGLTDVPADGIHFTPSVVPGLYAGVHGLTEPGDRVVTMTPIYHPFHLAINDLGREVAAAPLREGDTRWEIDWDALERAAEGARLLMLCHPHNPCGRVWDADELARLRELVLAHDLYVISDELHADLRFTDAPFEAFAADPRVRDRTLTVTGPCKAFNTAGLGIGVMVTHDPELLARVQRRVAGLGGHPSALSFTMWRVALEDGGPWLARTVEYLRGNRDFMTAFLRERLPWVRFTVPEATYLAWLDLREHPEAGRIQEFLLEEAKVAVHNGPTFAPGEQGAAYQGFIRVNFATSRAILTEALERMARALDTRQEGHHHHHH | not soluble
MPRRNPLWLRLPGSSSPSSSSTTEELRLAALSPYSPNDDISSIPDSLEHSPAKTSDDGSEISRANFSSPSSPSRSPSKKVSWSLFDQVSLSGEEFLLPRRFEAIELNAGTSTRSTSISCSATDLLESDHVTIRKISLQDPATARREYRNIILCRLLPHPNILPISEAYEVDSTLYTVSEQMDGRLSDIVEERLTHFVVAKISHQILAAVAMMHQNGIAHGDLTLSTIYVNTDAELRLSSYGKSDDSSEHLDERYRDDLLSIGAIVSRFLMNEEEMFKFSKSRNLKDIDWRVVLEGSSDSGLLDFNARSLLFQLLEGRQSARDLLRHPYFKSFRAPQHQTVERKHTVVGQKTSDEVLDKLREELQRFNPFNMSEIML | not soluble
MGDIEDAPRIISGIGELDRATGGGFVRGSALLVGGDPGIGKSTLLTQAAAALASRGHRIVYVSGEEAVAQIRLRAQRLGVADSPVELAAETNVEDILATIADGKRPDLVILDSIQTLWTDLADSAPGTVTQVRAAAQAMIRYAKSTGAAIVLVGHVTKEGQIAGPRVVEHMVDGVLYFEGEGGHHYRILRTVKNRFGLEHHHHHH | not soluble
MDAVQELERRIVELEIQSALQEDVIAGLNAMVAELRQTLDLQQAQLRLLYQKMQDRNPDAQEPYSLRDEIPPHY | not soluble
MSRRRHSDENDGGQPHKRRKTSDANETEDHLESLICKVGEKSACSLESNLEGLAGVLEADLPNYKSKILRLLCTVARLLPEKLTIYTTLVGLLNARNYNFGGEFVEAMIRQLKESLKANNYNEAVYLVRFLSDLVNCHVIAAPSMVAMFENFVSVTQEEDVPQVRRDWYVYAFLSSLPWVGKELYEKKDAEMDRIFANTESYLKRRQKTHVPMLQVWTADKPHPQEEYLDCLWAQIQKLKKDRWQERHILRPYLAFDSILCEALQHNLPPFTPPPHTEDSVYPMPRVIFRMFDYTDDPEGPVMPGSHSVERFVIEENLHCIIKSHWKERKTCAAQLVSYPGKNKIPLNYHIVEVIFAELFQLPAPPHIDVMYTTLLIELCKLQPGSLPQVLAQATEMLYMRLDTMNTTCVDRFINWFSHHLSNFQFRWSWEDWSDCLSQDPESPKPKFVREVLEKCMRLSYHQRILDIVPPTFSALCPANPTCIYKYGDESSNSLPGHSVALCLAVAFKSKATNDEIFSILKDVPNPNQDDDDDEGFSFNPLKIEVFVQTLLHLAAKSFSHSFSALAKFHEVFKTLAESDEGKLHVLRVMFEVWRNHPQMIAVLVDKMIRTQIVDCAAVANWIFSSELSRDFTRLFVWEILHSTIRKMNKHVLKIQKELEEAKEKLARQHKRRSDDDDRSSDRKDGVLEEQIERLQEKVESAQSEQKNLFLVIFQRFIMILTEHLVRCETDGTSVLTPWYKNCIERLQQIFLQHHQIIQQYMVTLENLLFTAELDPHILAVFQQFCALQA | soluble
MAIFARETMDLIATASFPSIKKLSSGFWLDLFESTLTSGNELVLLPPTRYSYWSIMAVANPTPLKAPRRLDLVTKSLLAAPLLFHLVCQSNNPVREDVLDCWVWPFFCSGNTALMKSPKFWALLGVGSKVVLPWLCPLLGSRNAGKA | soluble
MSLQARVAAPVVAKEREELVDRIEGETSAADELEKSVDELRDDVDARRREALEKSGDGDRSDLVGILSGAVEVHGPGVKLVVNDAKDVATGADGQPRGTSGFSDTGRVRDRDMQRVVNGLWESGAEAISVNGQRLTALSAIRAAGDAILVDNRPLVPPYTVLAVGDGERLSRGFQDSADGLYLHALEESYGIRTAISVADDLKLPAAPSVIVRTAQPITEKGTSEGHHHHHH | soluble
MGSDKIHHHHHHMKQYGEKFIDEFSKAEFEKLAKQGQLIDVRTEEEYALGHINGSILHPVDEIESFNKEKNKTYYVICRSGNRSANASKYLAKQGYNVINLDGGYKAYEENDSYDTQEEYKSIEIKADRKQFNYRGFQCPGPIVKISQEMKNIEVGDQIEVKVTDPGFPSDIKSWVKQTRHTLVKLDENNNGINAIIQKEKAKDLDINYSAKGTTIVLFSGELDKAVAALIIANGARAAGKDVTIFFTFWGLNALKKVQTVNVKKQGIAKMFDLMLPQKNIRMPLSKMNMFGLGNMMMRYVMKKKNVDSLPTLINQAIEQNIKLIACTMSMDVMGIQKEELRDEVEYGGVGTYIGATENANHNLFI | not soluble
MTNPGDGAAGAVDCATLDHWRPRLAAIAAAAGQDDAAHDLGHLRRVWGAARAMLQAHPEADALVVLAASYLHDLVNLPKNHPERHLASRQAAAAARERLARAGFPAARLDAVAHAIEAHSFSAGIAPRTIEARIVQDADRLDALGPVGLARMFHVGGSLGRALAHPSDPLAAQRALDDSRYTLDHIEAKLARLPHGMQTEAGRRLGEQRLAWLRDFRAAFAAQWGGGQLRLEHHHHHH | soluble
MSLKHSKIRIAHISDIHIGSRLDKLPQKMVNKIIEENPDLVVITGDLIDSHNVISTDLASFNAFKERNIPIYYTIGNHDIMAGEEYVSSILEYYGIIYLKNQVTQITIGDETIQLVGIDDVQSITKYNEIFNSITPSIHNNIYTILLHHRPQGYKTSVQSGQIDLQLAGHTHDGQVFPFNYIVPLFHSKSYGMYHIKDEGHHHHHH | not soluble
MAHHHHHHMVQVVHRHGERSALINDNKTEICGTLYPCGELTGERVKMVRAIGEFARSRYNDLSLVESPLCPSTQYNSSLVYTRPTHTQRTIQSATAFLHSLFQDDYFYPVAYSVNRTTDMLLSTDAVPSVVGRSWLDNQAVYPGLMEVNAAWFKYVFSWNHTSKLDLTQGSASQNLEQAMLANINAPPRLSPSYNMFHYSAHDTTVTPFAATFGDQGNTTMHPPFAVTSFVALLQDTADASGWYVRLIRSNPVKVASGTYVFRQTGIAVHCFDATGNRYRVSTGICPLDDFRRMVDHSRPAVADGHSAMTHAQYSNMGSPRTIADNKLVPLRCWIYRYACPSKSCPGSYILSAVDHQCYPQTDIPNSSSSEGTSSSDVSSFKKPANWMPRVSSPEKSRHIAADILRGVTNGVTVGAAVRKHDEYRRHC | not soluble
MEEDNQQDQNNQYVIYHPFFSEGCHFYFIISCTNSFIRVALKIGLIGDSQIGKTSLMVKYVEGSFDEDYIQTLGVNFMDKKIQIRNTTITFSIWDLGGQKEFINMLPLVSNDAVAILFMFDLTRKSTLNSIKEWYRQVRGFNKTAIPFLVGTKYDQFIDLSFQDQIEITQQAKKFGSAMKAPVIFCSTSHSINVQKIFKIILSKAFDLKLNLDEIVNVGEPILIYK | not soluble
AIATLLDWMNVCSVEIPKRIIAKHFSACQHTNQEVFSLDDSLAGLDECLHCEDSQQNHRKVSPGQTLRIVMIGKTGVGKSAVGNTILNREVFESKPSANSITQSCRKASVYDTREIYVIDTPGILDTSKEKDIIKREIVKCIKVSAPGPHAFLLVIQIGRFTAEEQRAVQALQELFGEDASNYMIVLFTHGDLLKGQTIDQYVREGHIELRRVIQSCGGRYAVFNNTMKDRTQVKTLIDKIDQMVAVNGGECYTQEMFREAEEKIRQQKEKREIAELQEYQFSFLGILENRVTLFQRILLEGYREQFAIESGIYK | soluble
MGSDKIHHHHHHMAKERVDVLLVEQGLFDTREKAKRAVMAGEILGDNEERLDKPGVKIDPSVKLHLKGKPMPYVSRGGLKLEKALKVFGLDVKGLTVLDIGSSTGGFTDVMLQNGAKLSYALDVGTNQLVWKLREDPRVVVMENTNFRYSKLEDFTEGQPEFASIDVSFISLKLILPALKNIIKTHGSVVSLIKPQFEAGRENVGKHGIVRDRKVHEEVLKNVLAMANAEGFNVKGLDFSPIKGGEGNIEFLAWLERSDTDQGVIEENVDTQKVIDSAYSNLNS | not soluble
MGSDKIHHHHHHMTMPYVKNTKEILEKASKERYAIGAFNFNNMEFLQAILEAAEEEKAPVIVATSEGAIKYIGKGDIETGAKLAVEMVRTYAEKLSVPVALHLDHGRDFKVIMAAIKAGYSSVMIDASHLPFEENLRETKRIVEIAHAVGISVEAELGKLKGIEDNVVEKESVLVDPEEAKVFVKETEVDFLAPAIGTSHGAFKFKGEAQLDFERLKKVKEYTQIPLVLHGASMVPQDIVKLANEYGAELSGAKGVPEDMLKKAIELGINKINTDTDLRITFVAYLRKVLSEDKSQIDPRKIFKPVFEQVKEIVKERIRIFGSSGKA | not soluble
MASLKVPSNVPLPEDDAEQLHKAFSGWGTNEKLIISILAHRNAAQRSLIRSVYAATYNEDLLKALDKELSSDFERAVMLWTLDPPERDAYLAKESTKMFTKNNWVLVEIACTRPALELIKVKQAYQARYKKSIEEDVAQHTSGDLRKLLLPLVSTFRYEGDDVNMMLARSEAKILHEKVSEKSYSDDDFIRILTTRSKAQLGATLNHYNNEYGNAINKNLKEESDDNDYMKLLRAVITCLTYPEKHFEKVLRLSINKMGTDEWGLTRVVTTRTEVDMERIKEEYQRRNSIPLDRAIAKDTSGDYEDMLVALLGHGDA | soluble
